Data: the Immune Epitope Database (IEDB)

What was measured:
Test in all cases: IEDB peptide-MHC binding, purified MHC/competitive/radioactivity; filed as Kd, often an IC50 or EC50 that approximates it; ≥ and ≤ were set here for values at or beyond the usual limits of such assays
HLA-A*03:01 = target: HLA-A*03:01
HLA-A*33:01 = target: HLA-A*33:01
HLA-A*11:01 = target: HLA-A*11:01
HLA-A*68:01 = target: HLA-A*68:01
HLA-A*31:01 = target: HLA-A*31:01
HLA-A*02:06 = target: HLA-A*02:06
HLA-A*02:03 = target: HLA-A*02:03
[1] = source organism: SARS coronavirus Tor2
[2] = source organism: Vaccinia virus WR
[3] = source organism: Mammarenavirus machupoense
[4] = source organism: Dengue virus 2 Jamaica/1409/1983
[5] = source organism: Mammarenavirus guanaritoense
[6] = source organism: Lymphocytic choriomeningitis virus (strain Armstrong)
[7] = source organism: Vaccinia virus Copenhagen

Row | Sequence | Kd (HLA-A*03:01; [2]) [µM] | Kd (HLA-A*33:01; [2]) [µM] | Kd (HLA-A*11:01; [2]) [µM] | Kd (HLA-A*68:01; [2]) [µM] | Kd (HLA-A*31:01; [2]) [µM] | also measured
1 | RLISMMGFK | – | – | – | – | – | Kd (HLA-A*03:01; [1]): 0.00318 µM; Kd (HLA-A*33:01; [1]): ≥ 77.7 µM; Kd (HLA-A*11:01; [1]): 0.0222 µM; Kd (HLA-A*68:01; [1]): 0.716 µM; Kd (HLA-A*31:01; [1]): 0.104 µM
2 | RQTVSRFKK | 0.0397 | 6.56 | 0.0407 | 4.63 | 0.0131 | –
3 | SAKQLRTRIR | ≥ 70.1 | 17.3 | ≥ 45.5 | ≥ 28.8 | 1.1 | –
4 | SASAFFGMSR | – | – | – | – | – | Kd (HLA-A*03:01; [1]): 0.966 µM; Kd (HLA-A*33:01; [1]): 0.121 µM; Kd (HLA-A*11:01; [1]): 0.0119 µM; Kd (HLA-A*68:01; [1]): 0.01 µM; Kd (HLA-A*31:01; [1]): 0.00948 µM
5 | SIFPANINDK | 1.22 | ≥ 46 | 0.00748 | 0.121 | ≥ 70 | –
6 | SLIGSKTQI | – | – | – | – | – | Kd (HLA-A*02:06; source organism: Homo sapiens): 10.6 µM; Kd (HLA-A*02:03; source organism: Homo sapiens): 0.0238 µM
7 | SLRCGACIRR | – | – | – | – | – | Kd (HLA-A*03:01; [1]): 0.265 µM; Kd (HLA-A*33:01; [1]): 0.0895 µM; Kd (HLA-A*11:01; [1]): 0.963 µM; Kd (HLA-A*68:01; [1]): 0.915 µM; Kd (HLA-A*31:01; [1]): 0.0163 µM
8 | SMNVAVIDK | ≥ 67.7 | 7.08 | 0.000278 | 4.88 | 0.612 | –
9 | SQASSRSSSR | – | – | – | – | – | Kd (HLA-A*03:01; [1]): 7.97 µM; Kd (HLA-A*33:01; [1]): 1.32 µM; Kd (HLA-A*11:01; [1]): 1.53 µM; Kd (HLA-A*68:01; [1]): 0.4 µM; Kd (HLA-A*31:01; [1]): 0.47 µM
10 | SSFDYCGTDH | – | – | – | – | – | Kd (HLA-A*03:01; [3]): ≥ 70 µM; Kd (HLA-A*33:01; [3]): ≥ 42 µM; Kd (HLA-A*11:01; [3]): ≥ 69.7 µM; Kd (HLA-A*68:01; [3]): ≥ 41.8 µM; Kd (HLA-A*31:01; [3]): ≥ 31.8 µM
11 | SSRVDRYSKK | 0.285 | ≥ 29.6 | 0.332 | 3.04 | 0.835 | –
12 | SVKSFEIDK | – | – | – | – | – | Kd (HLA-A*03:01; [1]): 1.56 µM; Kd (HLA-A*33:01; [1]): 12.2 µM; Kd (HLA-A*11:01; [1]): 0.137 µM; Kd (HLA-A*68:01; [1]): 0.729 µM; Kd (HLA-A*31:01; [1]): 1.11 µM
13 | TAFQHQNSKK | – | – | – | – | – | Kd (HLA-A*03:01; [1]): 0.332 µM; Kd (HLA-A*33:01; [1]): ≥ 70 µM; Kd (HLA-A*11:01; [1]): 0.139 µM; Kd (HLA-A*68:01; [1]): 0.0161 µM; Kd (HLA-A*31:01; [1]): ≥ 54.3 µM
14 | TAVCMKCFK | 0.211 | 4.46 | 0.0102 | 0.0113 | 0.448 | –
15 | TFIMLEGETK | 0.0388 | 3.42 | 0.0118 | 0.176 | 0.816 | –
16 | TLDQLEDSEY | 8.62 | ≥ 40.3 | 1.71 | 4.07 | 14.4 | –
17 | TLLATVTGGI | – | – | – | – | – | Kd (HLA-A*02:03; [4]): 0.0128 µM
18 | TMEIEDQEYH | – | – | – | – | – | Kd (HLA-A*03:01; [5]): ≥ 70 µM; Kd (HLA-A*33:01; [5]): ≥ 70 µM; Kd (HLA-A*11:01; [5]): ≥ 69.7 µM; Kd (HLA-A*68:01; [5]): 8.53 µM; Kd (HLA-A*31:01; [5]): ≥ 70 µM
19 | TQTAGPWHL | – | – | – | – | – | Kd (HLA-A*02:06; [4]): 0.435 µM
20 | VIEDITFLR | 1.56 | 0.42 | 0.0546 | 0.0118 | 0.0276 | –
21 | VSIILANER | ≥ 78 | 7.69 | 0.0472 | 0.00848 | 0.13 | –
22 | VTFRERYSYK | 0.000457 | 2.48 | 0.00319 | 0.00283 | 3.36 | –
23 | VTMFEALPH | – | – | – | – | – | Kd (HLA-A*03:01; [6]): 0.467 µM; Kd (HLA-A*33:01; [6]): ≥ 77.7 µM; Kd (HLA-A*11:01; [6]): 0.0156 µM; Kd (HLA-A*68:01; [6]): 18.7 µM; Kd (HLA-A*31:01; [6]): ≥ 77.9 µM
24 | VVQRCASNK | – | – | – | – | – | Kd (HLA-A*03:01; [1]): 0.663 µM; Kd (HLA-A*33:01; [1]): ≥ 77.7 µM; Kd (HLA-A*11:01; [1]): 0.639 µM; Kd (HLA-A*68:01; [1]): ≥ 48.3 µM; Kd (HLA-A*31:01; [1]): 8.26 µM
25 | VVSTGYHFR | – | – | – | – | – | Kd (HLA-A*03:01; [1]): 0.0315 µM; Kd (HLA-A*33:01; [1]): 0.0412 µM; Kd (HLA-A*11:01; [1]): 0.00855 µM; Kd (HLA-A*68:01; [1]): 0.00734 µM; Kd (HLA-A*31:01; [1]): 0.00169 µM
26 | YANLDDVYSY | ≥ 25.7 | 15.6 | 0.0382 | 1.65 | ≥ 33.3 | –
27 | YLLVKWYKK | – | – | – | – | – | Kd (HLA-A*03:01; [7]): 0.113 µM; Kd (HLA-A*33:01; [7]): 0.0305 µM; Kd (HLA-A*11:01; [7]): 0.189 µM; Kd (HLA-A*68:01; [7]): ≥ 23.4 µM; Kd (HLA-A*31:01; [7]): 0.012 µM
28 | YLTMKAIEK | 0.384 | 9.83 | 0.867 | 1.01 | 11.4 | –
29 | YSHLLPTQR | 4.03 | 0.892 | 1.17 | 0.0255 | 0.023 | –
